From publication PMC3472098

Target: T1, Rrp44exo- (exoribonuclease-dead) (budding yeast, UniProt Q08162 1-1001, D551N)
T1 sequence: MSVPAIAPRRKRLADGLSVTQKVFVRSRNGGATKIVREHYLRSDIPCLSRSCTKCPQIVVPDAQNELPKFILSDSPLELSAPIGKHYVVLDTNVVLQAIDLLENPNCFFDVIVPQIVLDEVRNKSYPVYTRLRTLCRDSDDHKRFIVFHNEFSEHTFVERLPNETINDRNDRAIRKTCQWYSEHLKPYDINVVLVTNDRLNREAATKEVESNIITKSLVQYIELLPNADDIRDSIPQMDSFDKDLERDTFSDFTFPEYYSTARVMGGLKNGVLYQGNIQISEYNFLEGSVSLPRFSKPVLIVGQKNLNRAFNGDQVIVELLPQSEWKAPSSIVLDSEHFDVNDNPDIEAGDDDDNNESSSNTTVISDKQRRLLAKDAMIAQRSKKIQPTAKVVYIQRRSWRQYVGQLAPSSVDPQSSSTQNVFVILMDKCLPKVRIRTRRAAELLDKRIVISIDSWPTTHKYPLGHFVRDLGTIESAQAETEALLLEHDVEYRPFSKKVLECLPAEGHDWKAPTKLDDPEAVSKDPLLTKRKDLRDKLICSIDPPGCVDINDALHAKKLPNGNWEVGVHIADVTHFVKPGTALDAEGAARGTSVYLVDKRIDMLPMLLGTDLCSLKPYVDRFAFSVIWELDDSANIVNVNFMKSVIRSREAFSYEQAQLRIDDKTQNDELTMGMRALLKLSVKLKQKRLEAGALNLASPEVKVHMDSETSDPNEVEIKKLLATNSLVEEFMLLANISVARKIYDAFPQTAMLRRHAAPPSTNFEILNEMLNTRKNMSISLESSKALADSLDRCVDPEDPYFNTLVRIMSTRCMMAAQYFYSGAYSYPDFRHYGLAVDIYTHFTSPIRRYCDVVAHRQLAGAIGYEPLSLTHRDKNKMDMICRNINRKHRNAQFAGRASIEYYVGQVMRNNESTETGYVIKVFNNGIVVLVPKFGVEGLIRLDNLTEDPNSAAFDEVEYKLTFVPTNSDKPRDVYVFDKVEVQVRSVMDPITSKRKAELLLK
Test: fluorescence polarization

AAAAAAAAAAAAAAAAAAAAAAAAAAAAAAAAAAAAAAAAAAAAAAAAA (ssRNA) [polyA RNA 49 nt]: binds.
